Test results: US7871610B2, “Antibodies to Tie1 ectodomain” (Dyax Corp., priority 2003, dated 2011)

Key:
[1] = molecular target: T1, recombinant human Tie1-Fc (Homo sapiens, UniProt P35590); assay: ELISA on recombinant human Tie-1-Fc; assay type: binding; conditions: soluble Fab 5 or 1 μg per 100 μl; 500 or 50 ng antigen per well
T1 construct: selected against the Tie1 extracellular domain fused to human Fc or to a histidine purification tag
T1 sequence (P35590 22-759 limits assumed): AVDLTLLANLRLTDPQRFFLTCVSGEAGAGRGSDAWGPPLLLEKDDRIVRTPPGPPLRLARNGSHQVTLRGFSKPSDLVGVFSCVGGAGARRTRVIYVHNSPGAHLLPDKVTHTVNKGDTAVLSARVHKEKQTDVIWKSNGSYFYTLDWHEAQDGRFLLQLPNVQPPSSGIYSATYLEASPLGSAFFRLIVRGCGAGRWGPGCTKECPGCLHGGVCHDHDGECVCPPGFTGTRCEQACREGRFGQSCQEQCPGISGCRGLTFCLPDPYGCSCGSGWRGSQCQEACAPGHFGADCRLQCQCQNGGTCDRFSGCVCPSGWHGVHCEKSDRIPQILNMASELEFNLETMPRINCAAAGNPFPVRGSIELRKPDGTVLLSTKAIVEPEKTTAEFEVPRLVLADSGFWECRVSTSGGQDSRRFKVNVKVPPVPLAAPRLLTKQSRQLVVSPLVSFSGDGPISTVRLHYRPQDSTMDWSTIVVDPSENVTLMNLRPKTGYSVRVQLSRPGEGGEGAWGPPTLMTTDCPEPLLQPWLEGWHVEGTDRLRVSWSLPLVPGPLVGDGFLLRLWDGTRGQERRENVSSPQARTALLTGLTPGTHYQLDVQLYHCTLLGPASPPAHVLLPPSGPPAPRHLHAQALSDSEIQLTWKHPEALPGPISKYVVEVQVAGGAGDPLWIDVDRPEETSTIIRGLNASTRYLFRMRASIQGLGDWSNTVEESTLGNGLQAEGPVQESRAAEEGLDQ
Experimental: To evaluate if the conversion of any of the somatic mutations in the framework of E3 back to germline residues had any effect on binding activity the soluble Fabs were produced. The soluble expression vector containing the parental E3 Fab and the germlined E3 Fab construct were grown overnight at 30° C. in 2×TY broth containing 100 μg/ml ampicillin and 2% glucose and use 4 ml of this overnight culture to inoculate 400 ml of 2×TY broth containing 100 μg/ml ampicillin and 0.1% glucose. Cells were grow at 37° C. until an OD600 of 0.8-1.0, 1 mM IPTG was added and the culture was maintained at 30° C. for 4 hours. The cultures were spun down at 4,000 rpm for 15 min at 4° C. […] Dialyze against PBS using dialysis cassettes (SLIDE-A-LYSER™ Dialysis Cassettes, MWCO 10,000, Pierce, cat. no. 66380) and determine the protein concentration from the absorbance at 280 nm assuming that a 1 mg/ml solution has an absorbance of 0.86. The quality of the preparations can be analyzed by reducing and non-reducing SDS-PAGE.
Wells of an IMMULON™ 2 HB plate coated overnight with 500 ng or 50 ng of purified recombinant human Tie-1-Fc target antigen per 100 microliters 0.1 M sodium bicarbonate buffer, pH 8.5. […] After washing the wells seven times 100 microliters TMB-H2O2 solution was added to each well and the plate read at 630 nm in an ELISA. […]

Tie1 = Tie1 (Homo sapiens, UniProt P35590); assay: Confocal microscopy staining of HUVEC; assay type: binding; parameters: endogenous in cells; host or cells: HUVEC; conditions: biotinylated antibody 10 μg/ml, fixed cells
Sequence of Tie1 (P35590 22-1138): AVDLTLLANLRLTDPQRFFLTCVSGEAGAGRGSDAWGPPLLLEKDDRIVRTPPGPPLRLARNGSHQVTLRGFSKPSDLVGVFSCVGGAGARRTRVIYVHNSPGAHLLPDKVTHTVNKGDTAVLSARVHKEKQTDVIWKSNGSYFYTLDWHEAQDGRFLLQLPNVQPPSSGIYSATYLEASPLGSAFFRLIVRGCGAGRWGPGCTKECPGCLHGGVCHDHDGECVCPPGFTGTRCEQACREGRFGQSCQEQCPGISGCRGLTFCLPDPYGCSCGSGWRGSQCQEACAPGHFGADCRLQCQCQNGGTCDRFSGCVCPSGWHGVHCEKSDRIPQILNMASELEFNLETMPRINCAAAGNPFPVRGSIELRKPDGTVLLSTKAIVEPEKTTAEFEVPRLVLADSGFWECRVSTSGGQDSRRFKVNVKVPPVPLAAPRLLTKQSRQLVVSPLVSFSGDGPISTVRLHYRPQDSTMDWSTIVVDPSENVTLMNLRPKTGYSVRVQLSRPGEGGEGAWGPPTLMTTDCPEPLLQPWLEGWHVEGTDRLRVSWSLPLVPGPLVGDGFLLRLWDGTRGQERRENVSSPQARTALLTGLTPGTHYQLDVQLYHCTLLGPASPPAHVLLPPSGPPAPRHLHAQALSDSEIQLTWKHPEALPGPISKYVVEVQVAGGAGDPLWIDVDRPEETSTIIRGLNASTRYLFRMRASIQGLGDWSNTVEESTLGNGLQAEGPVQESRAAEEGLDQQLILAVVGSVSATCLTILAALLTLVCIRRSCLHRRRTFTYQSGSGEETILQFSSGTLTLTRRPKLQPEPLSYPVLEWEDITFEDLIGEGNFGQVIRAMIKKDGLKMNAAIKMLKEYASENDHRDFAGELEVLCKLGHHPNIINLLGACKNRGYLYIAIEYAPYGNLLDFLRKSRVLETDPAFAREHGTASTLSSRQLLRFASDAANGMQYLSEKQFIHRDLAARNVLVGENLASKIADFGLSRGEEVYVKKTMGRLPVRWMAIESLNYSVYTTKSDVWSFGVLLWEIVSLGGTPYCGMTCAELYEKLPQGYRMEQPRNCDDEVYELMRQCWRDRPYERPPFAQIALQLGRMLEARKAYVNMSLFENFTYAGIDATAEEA
Experimental: We analyzed the staining pattern of E3 in HUVECS using confocal microscopy. HUVEC were trypsinised, washed with PBS and spotted at a density of 60 000 cells on a gelatine coated microscope slide and incubated for 24 hours in a humidified incubator at 37° C. Cells were air dried and fixed with 4% paraformaldehyde for 20 minutes at room temperature. The slides were washed with PBS. The slides were incubated with 10% Heat inactivated human serum (incubation buffer).
For measuring specific binding to Tie-1, biotinylated antibody E3 and biotinylated negative control antibody A2 were used at a concentration of 10 μg/ml and incubated for 1 hour at room temperature. Slides were washed twice with PBS. Then, Strepatvidin-R-phycoerythrin (Dako, Glostrup, Denmark) was added and incubated for 1 hour at room temperature. After the last incubation and washing detection of bound antibodies was performed by means of confocal microscopy.

B1: E3: human anti-Tie1 antibody from Fab phage library; HC SEQ ID NO:114, LC SEQ ID NO:116 (antibody, V domains shown)
VH: EVQLLESGGGLVQPGGSLRLSCAASGFTFSMYGMVWVRQAPGKGLEWVSVISPSGGNTGYADSVKGRFTISRDNSKNTLYLQVNSLRAEDTAVYYCARAPRGYSYGYYYWGQGTLVTVSSASTKGPSVFPLAPSSKSTSGG
VL: DIQMTQSPLSLSASVGDRVTITCRASQGIGHYLAWYQQKPGKVPKLLIYTASTLQSGVPSRFSGSGSGTDFTLTINSLQPEDVATYYCQQFNSYPHTFGQGTRLDIK
modifications: Synthetically generated peptide
- binding to recombinant human Tie-1-Fc in ELISA [1]: bound
- binding to HUVEC by confocal microscopy (Tie1): binds specifically to HUVEC
- localisation of staining in HUVEC (Tie1): pre-dominantly located inside of the cell
